The results in this text go back to article doi:10.1101/429076 (bioRxiv, 2018).

B1: Ube2T wildtype (enzyme, human, UniProt Q9NPD8 1-197, looked up)
chain: MQRASRLKRELHMLATEPPPGITCWQDKDQMDDLRAQILGGANTPYEKGVFKLEVIIPERYPFEPPQIRFLTPIYHPNIDSAGRICLDVLKLPPKGAWRPSLNIATVLTSIQLLMSEPNPDDPLMADISSEFKYNKPAFLKNARQWTEKHARQKQKADEEEMLDNLPEAGDSRVHNSTQKRKASQLVGIEKKFHPDV
B4: Ube2T backside β1 double mutant (T23R+W25Q or TW/RQ) (enzyme, human, UniProt Q9NPD8 1-197, looked up)
chain: MQRASRLKRELHMLATEPPPGIRCQQDKDQMDDLRAQILGGANTPYEKGVFKLEVIIPERYPFEPPQIRFLTPIYHPNIDSAGRICLDVLKLPPKGAWRPSLNIATVLTSIQLLMSEPNPDDPLMADISSEFKYNKPAFLKNARQWTEKHARQKQKADEEEMLDNLPEAGDSRVHNSTQKRKASQLVGIEKKFHPDV

Common to all, as to assay: ITC
On the technique in general: Isothermal titration calorimetry measures the heat released or taken up as one component is titrated into another.

For assay [1], the target named is T1, FANCL URD-RING fragment (FANCL^UR, residues 109-375) (human, UniProt Q9NW38 109-375).
T1 sequence (looked up): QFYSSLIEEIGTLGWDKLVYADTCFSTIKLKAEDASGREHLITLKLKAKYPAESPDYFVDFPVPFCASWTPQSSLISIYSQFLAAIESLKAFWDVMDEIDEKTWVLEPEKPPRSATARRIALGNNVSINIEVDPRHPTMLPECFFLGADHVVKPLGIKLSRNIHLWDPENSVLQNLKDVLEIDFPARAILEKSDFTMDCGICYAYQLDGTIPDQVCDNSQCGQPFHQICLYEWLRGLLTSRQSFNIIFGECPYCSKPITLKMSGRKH

Assay [2] addresses B4.
Assay [3] addresses B1.

In assay [1], B1 yielded an equilibrium dissociation constant (Kd) of approximately 0.119 µM and a dH of 27 kJ/mol.

B2: Ube2T loop2-loop7 hybrid mutant (D32A, D33A, L92A or DDL/AAA) (enzyme, human, UniProt Q9NPD8 1-197, looked up)
chain: MQRASRLKRELHMLATEPPPGITCWQDKDQMAALRAQILGGANTPYEKGVFKLEVIIPERYPFEPPQIRFLTPIYHPNIDSAGRICLDVLKAPPKGAWRPSLNIATVLTSIQLLMSEPNPDDPLMADISSEFKYNKPAFLKNARQWTEKHARQKQKADEEEMLDNLPEAGDSRVHNSTQKRKASQLVGIEKKFHPDV
Take B2: in assay [1], the Kd was approximately 0.119 µM and the dH was -6.9 kJ/mol.

B3: Ube2T Glu54Arg (Ube2Tv1 variant with a permissive gate, E54R) (enzyme, human, UniProt Q9NPD8 1-197, looked up)
chain: MQRASRLKRELHMLATEPPPGITCWQDKDQMDDLRAQILGGANTPYEKGVFKLRVIIPERYPFEPPQIRFLTPIYHPNIDSAGRICLDVLKLPPKGAWRPSLNIATVLTSIQLLMSEPNPDDPLMADISSEFKYNKPAFLKNARQWTEKHARQKQKADEEEMLDNLPEAGDSRVHNSTQKRKASQLVGIEKKFHPDV
B3: in assay [1], the binding result is recorded as “binds”.

For the molecule B4, the dissociation constant Kd in assay [1] stood at 0.2 µM.

B5: FANCL RING domain (FANCL^R, residues 289-375) (domain or fragment, human, UniProt Q9NW38 289-375, looked up)
chain: EIDFPARAILEKSDFTMDCGICYAYQLDGTIPDQVCDNSQCGQPFHQICLYEWLRGLLTSRQSFNIIFGECPYCSKPITLKMSGRKH
For the molecule B5, the binding result in assay [2] is recorded as “binds”. The same molecule returned a dissociation constant (Kd) in assay [3] of approximately 0.25 µM.

Usually Kd stands for the constant that tells how readily two partners part at equilibrium. High values mean a looser complex, low ones a tighter complex.
